Experimental findings from FireProtDB (doi:10.1021/bi0525223) are described below.

The conditions of the data set: Lithobates pipiens, pH 5.5, sodium acetate 100 mM, reversible: Yes, whole UniProt chain shown.

B1: Protein P-30 wild type, P22069 (protein)
chain: QDWLTFQKKHITNTRDVDCDNIMSTNLFHCKDKNTFIYSRPEPVKAICKGIIASKNVLTTSEFYLSDCNVTSRPCKYKLKKSTNKFCVTCENQAPVHFVGVGSC
In general, Tm refers to the temperature at which the thermal transition is half complete. On to B1, for which the “denaturant midpoint (higher = more stable)” value (20 °C, GdnHCl, Fluorescence) stood at 4.4 M. Also, the Tm (Thermal, DSC) was 88.5 °C.
